Measured values as given in article PMC5175494.

Key:
[1] = target: human cardiac T53C-IAANS TnC (human) (UniProt P63316); experiment: stopped-flow fluorescence; apparent; 1 uM TnC T53C-IAANS with saturating Ca2+ and increasing concentrations of TnI128-180, Ca2+ removed with 10 mM EGTA; rate of Ca2+ dissociation followed by IAANS fluorescence; 15°C; 10 mM MOPS, 150 mM KCl, pH 7.0
Troponin C = Troponin C (UniProt P63316); settings: cited from earlier work

Substance | Kd [1] [nM] | Kd (Troponin C) [nM]
TnI_(128−180) peptide (from UniProt P19429 128-180) | 3000 | –
Troponin I (from UniProt P19429) | – | 1200
